{
  "source": "paper PMC7955094",
  "origin": "cited, not measured here",
  "target": "His19 (UniProt position 19, ILSALHFMAWT)",
  "conditions": "membrane-bound BM2 tetramer, wild type",
  "data": [
    {"substance": "Influenza B virus M2 protein (BM2) proton channel (Influenza B virus (this article's own samples use strain B/Maryland/1/2001; the strain of the quoted pKa study is not stated))", "values": [
      {"measurement": "pKa", "value": 5.1}
    ]}
  ]
}
